Results: paper PMC2656442
Where two headings read alike, the source gives them in different places.

Legend:
[1] = target: human Cdc42 (residues 1-191) (human) (UniProt P60953)
[2] = target: human Cdc42 (residues 1-191) (human) (UniProt P60953); assay: ITC
[3] = target: human RhoA (residues 1-193) (human) (UniProt P61586); assay: ITC
[4] = target: human RhoA (residues 1-193) (human) (UniProt P61586)
[5] = target: human Cdc42 (residues 1-191) (human) (UniProt P60953); assay: ITC; remark: listed apart in the source
[6] = target: human RhoA (residues 1-193) (human) (UniProt P61586); assay: ITC; remark: listed apart in the source
[7] = target: human Cdc42 (residues 1-191) (human) (UniProt P60953); remark: listed apart in the source
[8] = target: human RhoA (residues 1-193) (human) (UniProt P61586); remark: listed apart in the source
[9] = target: human Rac1 (residues 1-192) (human) (UniProt P63000); assay: ITC

UniProt P61586, sequence (P61586 whole entry, the tested form may be a part): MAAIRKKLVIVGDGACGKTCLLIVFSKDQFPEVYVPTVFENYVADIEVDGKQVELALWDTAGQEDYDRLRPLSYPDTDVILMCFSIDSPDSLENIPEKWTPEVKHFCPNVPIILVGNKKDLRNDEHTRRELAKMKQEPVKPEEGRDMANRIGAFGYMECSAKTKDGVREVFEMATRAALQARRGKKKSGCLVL
UniProt P60953, sequence (P60953 whole entry, the tested form may be a part): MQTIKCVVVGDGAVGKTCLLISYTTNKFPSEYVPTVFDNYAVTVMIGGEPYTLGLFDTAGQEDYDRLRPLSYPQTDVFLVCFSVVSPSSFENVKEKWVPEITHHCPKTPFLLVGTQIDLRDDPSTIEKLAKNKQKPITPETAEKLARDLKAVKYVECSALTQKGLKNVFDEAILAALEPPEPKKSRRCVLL

Row | Substance | KM of GAP-stimulated GTP hydrolysis (MESG/PNP assay), GTP·Mg2+-loaded Cdc42 [1] [µM] | Ka [2] [M⁻¹] | dH [2] [kcal/mol] | Ka [3] [M⁻¹] | dH [3] [kcal/mol] | kcat/KM of GAP-stimulated GTP hydrolysis (MESG/PNP assay), GTP·Mg2+-loaded Cdc42 [1] [M⁻¹ s⁻¹] | KM of GAP-stimulated GTP hydrolysis (MESG/PNP assay), GTP·Mg2+-loaded RhoA [4] [µM] | kcat/KM of GAP-stimulated GTP hydrolysis (MESG/PNP assay), GTP·Mg2+-loaded RhoA [4] [M⁻¹ s⁻¹] | Ka [5] [M⁻¹] | dH [5] [kcal/mol] | Ka [6] [M⁻¹] | dH [6] [kcal/mol] | kcat of GAP-stimulated GTP hydrolysis (MESG/PNP assay), GTP·Mg2+-loaded Cdc42 [7] [s⁻¹] | KM of GAP-stimulated GTP hydrolysis (MESG/PNP assay), GTP·Mg2+-loaded RhoA [8] [µM] | kcat of GAP-stimulated GTP hydrolysis (MESG/PNP assay), GTP·Mg2+-loaded RhoA [8] [s⁻¹] | kcat/KM of GAP-stimulated GTP hydrolysis (MESG/PNP assay), GTP·Mg2+-loaded RhoA [8] [M⁻¹ s⁻¹] | stoichiometry N [2] | fold lower KA than for Cdc42 (m1 with m18) [9] [fold] | fold lower KA than for RhoA (m1 with m19) [9] [fold] | stoichiometry N [3]
1 | GAP^Graf I358E (domain or fragment) | 12.4 | 97000 | 4.64 | 33000 | 3.92 | – | – | – | – | – | – | – | – | – | – | – | – | – | – | –
2 | GAP^Graf N225A (domain or fragment) | 8 | 1.56e+06 | 9.85 | 303000 | 10.7 | 205000 | 24.4 | 205000 | – | – | – | – | – | – | – | – | – | – | – | –
3 | GAP^Graf I358A (domain or fragment) | 15 | 946000 | 14 | 255000 | 14.4 | 333000 | 18.2 | 41700 | – | – | – | – | – | – | – | – | – | – | – | –
4 | GAP^Graf V338A (domain or fragment) | 5.9 | 203000 | 16.9 | 93000 | 14.5 | 243000 | 31.3 | 26700 | – | – | – | – | – | – | – | – | – | – | – | –
5 | GAP domain of Graf (GTPase Regulator Associated with Focal Adhesion Kinase), wild type (domain or fragment) | – | 2.42e+06 | 15 | 554000 | 13 | – | – | – | 26100 | 5.47 | 33800 | 1.6 | 3.65 | 6.8 | 1.46 | 217000 | 1 | 100 | > 20 | 1
6 | GAP^Graf V224K (domain or fragment) | 10.2 | 92000 | 10.5 | 338000 | 16.8 | 457000 | 10.3 | – | – | – | – | – | – | – | – | – | – | – | – | –
7 | GAP^Graf V338L (domain or fragment) | 2.4 | 1.18e+06 | 15.9 | 220000 | 9.8 | 522000 | 8.7 | 33300 | – | – | – | – | – | – | – | – | – | – | – | –
8 | GAP^Graf E253A (domain or fragment) | 19.9 | 298000 | 7.48 | 456000 | 10.1 | 532000 | 11.3 | 330000 | – | – | – | – | – | – | – | – | – | – | – | –
9 | GAP^Graf R266A (domain or fragment) | 11 | 773000 | 13.8 | 93000 | 10.3 | 278000 | 25 | 48300 | – | – | – | – | – | – | – | – | – | – | – | –
10 | GAP^Graf E253K (domain or fragment) | 10.2 | 445000 | 10.5 | 643000 | 12 | 457000 | 8.8 | 413000 | – | – | – | – | – | – | – | – | – | – | – | –
